Measurements published in publication PMC4415419, “The bZIP transcription factor HY5 interacts with the promoter of the monoterpene synthase gene QH6 in modulating its rhythmic expression”.

Target: T1, GST-HY5 (Arabidopsis thaliana, UniProt O24646 1-168)
T1 sequence: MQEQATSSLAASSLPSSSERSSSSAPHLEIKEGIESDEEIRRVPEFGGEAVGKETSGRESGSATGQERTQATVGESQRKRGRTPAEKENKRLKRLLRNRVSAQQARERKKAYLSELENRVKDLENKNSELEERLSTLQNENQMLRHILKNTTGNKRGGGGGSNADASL
Test: EMSA; 5 ug protein, 20 fmol probe; shift abolished by unlabeled 52-bp competitor (0.5-4 pmol); LightShift Chemiluminescent EMSA kit (Pierce), 20 uL, 8% native PAGE in 1x TBE; salt, pH and temperature not stated
Conditions: protein: recombinant; tags: N-terminal GST (pGEX-4T-1); chain copies: 2; label: biotin; blunt

B1: 391-442 (QH6 promoter G-box probe) (dsDNA)
DNA 1: CCTTTAAGTTGCTCTATTTTGACACGTGGCAAAATAATATCTATCTACCCAC
DNA 2: GTGGGTAGATAGATATTATTTTGCCACGTGTCAAAATAGAGCAACTTAAAGG
  binding result: binds
